11 molecules from patent US20210155689A1 (SHANGHAI PHARMAEXPLORER, published 2021) can be followed below.

For experiment [1], the target named is T1, monkey LAG-3 (full length, on the cell surface) (monkey, UniProt P18627 24-525 (human entry)).
T1 construct: also called HEK293-cLAG-3; monkey LAG-3 protein on the cell surface
T1 chain: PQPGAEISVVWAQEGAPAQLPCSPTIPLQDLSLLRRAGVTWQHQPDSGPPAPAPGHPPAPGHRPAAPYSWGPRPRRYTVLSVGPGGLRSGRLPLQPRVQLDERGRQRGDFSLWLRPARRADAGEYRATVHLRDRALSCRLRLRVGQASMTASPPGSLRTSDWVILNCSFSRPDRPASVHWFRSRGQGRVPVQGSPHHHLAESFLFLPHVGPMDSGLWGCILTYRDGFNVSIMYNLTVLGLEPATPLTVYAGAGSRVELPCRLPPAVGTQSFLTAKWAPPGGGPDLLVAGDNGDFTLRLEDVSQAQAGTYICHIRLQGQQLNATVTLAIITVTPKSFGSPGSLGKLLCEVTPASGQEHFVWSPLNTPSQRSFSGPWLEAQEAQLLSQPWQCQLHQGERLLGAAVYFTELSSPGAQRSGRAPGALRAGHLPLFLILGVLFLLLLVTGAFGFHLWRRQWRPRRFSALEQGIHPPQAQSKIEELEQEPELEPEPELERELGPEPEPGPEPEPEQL
The experiment is described as follows: FACS, HEK293-cLAG-3; 1.600 nM. From the text: (§1) The pIRES plasmid with the monkey-derived full-length gene was transfected into the HEK293 cell line to construct a HEK293 stable cell line containing monkey LAG-3 (herein referred to as HEK293-cLAG-3 stable cell line). The HEK293-hLAG-3 stable cell line and HEK293-cLAG-3 stable cell line were expanded in a T-75 cell culture flask to a 90% confluence. The medium was aspirated, and the cells were washed with HBSS (Hanks' Balanced Salt Solution) 1-2 times, then treated with a enzyme-free cell dissociation fluid (Versene solution: Life technology) and the cells were collected. The cells were washed with HBSS buffer for 1-2 times. After counted, the cells were diluted with HBSS to 1-2×10⁶ cells per ml, added with 1% goat serum blocking solution, incubated on ice for 20-30 minutes, and then washed with HBSS for 2 times by centrifugation. The collected cells were suspended in the FACS buffer (HBSS+1% BSA) to 2×10⁶ cells/ml, added as 100 microliters per well to a 96-well FACS reaction plate, added with 100 microliters per well of the antibody sample to be tested, incubated on ice for 1-2 hours. The plate was washed twice with the FACS buffer by centrifugation, added with 100 microliters of fluorescent (Alexa 488)-labeled secondary antibodies per well, and incubated on ice for 0.5-1.0 hours. The plate was washed 2-3 times with FACS buffer by centrifugation, added with 100 μl fixative solution (4% Paraformaldehyde) per well to suspend the cells. 5-10 minutes later, it was washed 1-2 times with FACS buffer by centrifugation. The cells were suspended with 100 microliters of FACS buffer, FACS (FACSCalibur, BD) was used for detection and the results were analyzed.

Experiment [2] concerns the target T2, mouse LAG-3 protein with hFc tag (mLAG-3-hFc protein) (mouse; human, UniProt Q61790 24-442).
T2 construct: Made in HEK293 cells; also called mouse LAG-3 extracellular domain protein; not shown: human IgG Fc fragment (hFc) of the pCpC vector
T2 sequence: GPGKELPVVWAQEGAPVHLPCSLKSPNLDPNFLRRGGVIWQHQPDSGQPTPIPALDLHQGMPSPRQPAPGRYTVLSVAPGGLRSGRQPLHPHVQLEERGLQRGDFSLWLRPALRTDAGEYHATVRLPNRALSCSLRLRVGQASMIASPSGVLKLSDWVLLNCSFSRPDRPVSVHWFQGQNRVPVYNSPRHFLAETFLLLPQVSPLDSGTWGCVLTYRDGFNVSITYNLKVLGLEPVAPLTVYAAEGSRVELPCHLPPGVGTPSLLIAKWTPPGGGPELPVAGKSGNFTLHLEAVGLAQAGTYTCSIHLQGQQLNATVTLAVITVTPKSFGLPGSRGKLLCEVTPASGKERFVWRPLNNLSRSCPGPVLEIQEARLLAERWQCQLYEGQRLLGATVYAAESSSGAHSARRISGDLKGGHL
The experiment can be described thus: ELISA, mLAG-3-hFc coated; 0.0000 nM. The protocol:
The plate was sealed with plastic film and incubated overnight at 4° C. The plate was washed 2 times with the plate washing solution (PBS+0.01% Tween20) on the next day, and added with the blocking solution (PBS+0.01% Tween20+1% BSA) and blocked at room temperature for 1-2 hours. The blocking solution was poured out, and the plate was added with 50-100 μl of the antibody sample to be tested to each well, incubated at 37° C. for 1-2 hours, and washed 2-3 times with a plate washing solution (PBS+0.01% Tween20). HRP (horseradish peroxidase) labeled secondary antibody was added, and the plate was incubated at 37° C. for 1-2 hours, and washed 2-3 times with a plate washing solution (PBS+0.01% Tween20). 100 μl of TMB substrate was added to each well. After incubated at room temperature for 15-30 minutes, the plate was added with 100 μl of stop solution (1.0N HCl) to each well.
(An ELISA detects its analyte on a solid surface through an enzyme-linked reagent.)

Experiment [3] deals with T3, monkey LAG-3 on cells (HEK293-cLAG-3 stable cell line) (monkey, UniProt P18627 24-525 (human entry)).
T3 construct: Full-length monkey (Chinese monkey) LAG-3 gene expressed on HEK293 cells
T3 chain: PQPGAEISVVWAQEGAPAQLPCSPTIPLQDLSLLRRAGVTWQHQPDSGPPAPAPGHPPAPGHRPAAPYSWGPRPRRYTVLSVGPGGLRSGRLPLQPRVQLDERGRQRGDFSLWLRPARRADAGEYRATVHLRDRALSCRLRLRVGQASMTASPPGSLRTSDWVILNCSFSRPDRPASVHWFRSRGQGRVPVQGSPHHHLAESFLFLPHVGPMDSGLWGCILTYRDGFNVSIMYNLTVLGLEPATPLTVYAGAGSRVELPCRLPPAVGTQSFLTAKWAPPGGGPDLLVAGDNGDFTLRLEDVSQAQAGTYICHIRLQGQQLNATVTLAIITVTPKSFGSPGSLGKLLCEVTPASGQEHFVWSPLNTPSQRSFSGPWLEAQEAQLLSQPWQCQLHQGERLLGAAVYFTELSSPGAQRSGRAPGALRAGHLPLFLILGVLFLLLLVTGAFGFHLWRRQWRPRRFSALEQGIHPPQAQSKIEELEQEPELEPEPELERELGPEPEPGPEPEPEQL
The experiment can be described thus: FACS, HEK293-cLAG-3, antibody 0.064 nM.
Description: as §1
On the technique in general: In flow cytometry, cells or beads pass a laser one at a time.

Experiment [4] addresses T4, human LAG-3 on cells (HEK293-hLAG-3 stable cell line) (human, UniProt P18627 23-525).
T4 sequence: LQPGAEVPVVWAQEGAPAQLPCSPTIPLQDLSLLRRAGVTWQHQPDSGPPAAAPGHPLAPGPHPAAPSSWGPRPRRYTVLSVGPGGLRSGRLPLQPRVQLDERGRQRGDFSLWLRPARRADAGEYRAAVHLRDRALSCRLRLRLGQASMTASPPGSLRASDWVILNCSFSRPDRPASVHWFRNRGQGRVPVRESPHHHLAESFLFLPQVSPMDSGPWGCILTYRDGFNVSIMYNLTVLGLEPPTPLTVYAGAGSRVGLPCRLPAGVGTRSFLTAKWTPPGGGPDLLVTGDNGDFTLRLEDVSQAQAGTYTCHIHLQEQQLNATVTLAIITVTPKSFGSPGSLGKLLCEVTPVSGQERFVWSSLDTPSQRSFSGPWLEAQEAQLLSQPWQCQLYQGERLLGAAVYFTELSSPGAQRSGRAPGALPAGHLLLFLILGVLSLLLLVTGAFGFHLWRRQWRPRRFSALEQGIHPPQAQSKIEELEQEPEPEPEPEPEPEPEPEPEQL
The experiment is described as follows: FACS, HEK293-hLAG-3, antibody 8.000 nM.
Description: as §1

B1: 405B8H3 (mouse antibody purified from hybridoma) (antibody, V domains shown)
VH: QVQLQQSGAELVRPGASVTLSCKASGYTFTDYEMHWVKQTPVHGLEWIGATDPETGNSAYNQKFKGKAIMTADKSSSTAYMELRSLTSEDSAVYYCISTGWNDWGQGTSLTVSS
VL: DIKMTQSPSSMYASLGERVTITCKASQDINSYLSWFQQKPGKSPKTLIYRADRLLDGVPSRFSGSGSGQDYSLTISSLEYGDMGIYYCLQYDEFPYTFGGGTKLEIK
notes: also called mAb103-405B8H3; 405B81-13
In experiment [1], B1 displayed a Mean fluorescence intensity of 23 MFI.

B2: 405B8H3 (LAG-3 mouse-human chimeric antibody) (antibody, V domains shown)
VH: QVQLQQSGAELVRPGASVTLSCKASGYTFTDYEMHWVKQTPVHGLEWIGATDPETGNSAYNQKFKGKAIMTADKSSSTAYMELRSLTSEDSAVYYCISTGWNDWGQGTSLTVSS
VL: DIKMTQSPSSMYASLGERVTITCKASQDINSYLSWFQQKPGKSPKTLIYRADRLLDGVPSRFSGSGSGQDYSLTISSLEYGDMGIYYCLQYDEFPYTFGGGTKLEIK
notes: also called mouse-human chimeric antibody 405B8H3
As for B2, in experiment [2], the OD450 came to 0.1 OD450.

B3: 105F1E10 (mouse antibody purified from hybridoma) (antibody, V domains shown)
VH: EVQLQQSGPELVKPGASVKMSCRASGYTFTDFKMHWMKQSHGKSLEWIGYIAPNNGGTAYNQKFRGKATLTVNESSNTAYMELRSLTSEDSAVYYCVDWDDVDYWGQGTTLTVSS
VL: DIKMTQSPSSMYASLGERVTITCKASQDINSYLSWFQQKSGKSPKTLIYRANRLVDGVPSRFSGSGSGQDYSLTISSLEYEDMGIYYCLQYVEFPLTFGAGTKLELK
notes: also called mAb009-105F1E10
Regarding B3, in experiment [1], the Mean fluorescence intensity was 15.4 MFI.

B4: 105F1E10 (LAG-3 mouse-human chimeric antibody) (antibody, V domains shown)
VH: EVQLQQSGPELVKPGASVKMSCRASGYTFTDFKMHWMKQSHGKSLEWIGYIAPNNGGTAYNQKFRGKATLTVNESSNTAYMELRSLTSEDSAVYYCVDWDDVDYWGQGTTLTVSS
VL: DIKMTQSPSSMYASLGERVTITCKASQDINSYLSWFQQKSGKSPKTLIYRANRLVDGVPSRFSGSGSGQDYSLTISSLEYEDMGIYYCLQYVEFPLTFGAGTKLELK
In experiment [2], B4 showed an OD450 of 0.08 OD450.

B5: 409B11E12 (LAG-3 mouse-human chimeric antibody) (antibody, V domains shown)
VH: QVQLQQSGAELVRPGASVTLSCKASGYTFTDYEMHWVKQTTVHGLEWIGATDPETSYSAYNQKFKGKAILTADKSSSTAYMELRSLTSEDSAVYYCIATGWNDWGQGTSLTVSS
VL: DLKMTQSPSSMYASLGERVTITCKASQDINSYLSWFQQKPGKSPKTLIYRANRLLDGVPSRFSGSGSGQDYSLTISSLEYEDMGIYYCLQYDEFPYTFGGGTKLEIK
As for B5, the OD450 in experiment [2] was 0.08 OD450.

B6: 409B11E12 (mouse antibody purified from hybridoma) (antibody, V domains shown)
VH: QVQLQQSGAELVRPGASVTLSCKASGYTFTDYEMHWVKQTTVHGLEWIGATDPETSYSAYNQKFKGKAILTADKSSSTAYMELRSLTSEDSAVYYCIATGWNDWGQGTSLTVSS
VL: DLKMTQSPSSMYASLGERVTITCKASQDINSYLSWFQQKPGKSPKTLIYRANRLLDGVPSRFSGSGSGQDYSLTISSLEYEDMGIYYCLQYDEFPYTFGGGTKLEIK
notes: also called mAb104-409B11E12
B6: in experiment [1], the Mean fluorescence intensity turned out to be 24.4 MFI.

B7: 409D4E10 (mouse antibody purified from hybridoma) (antibody, V domains shown)
VH: QVQLQQSGAELVRPGASVTLSCKASGNTFTDYEMHWVKQTPVHGLEWIGATDPETDNTAYNQKFKGKAILTTDKSSSTAYMELRSLTSEDSAVYYCITSGWNDWGQGTSLTVSS
VL: DIKMTQSPSSMYASLGERVTITCKASQDINSYLSWFQQKPGKSPKTLIYRANRLLDGVPSRFSGSGSGQDYSLTISSLEYEDMGIYYCLQYNEFPYTFGGGTKLEIK
notes: also called mAb112-409D4E10
Consider B7, for which the Mean fluorescence intensity in experiment [1] is 36.1 MFI.

B8: 409D4E10 (LAG-3 mouse-human chimeric antibody) (antibody, V domains shown)
VH: QVQLQQSGAELVRPGASVTLSCKASGNTFTDYEMHWVKQTPVHGLEWIGATDPETDNTAYNQKFKGKAILTTDKSSSTAYMELRSLTSEDSAVYYCITSGWNDWGQGTSLTVSS
VL: DIKMTQSPSSMYASLGERVTITCKASQDINSYLSWFQQKPGKSPKTLIYRANRLLDGVPSRFSGSGSGQDYSLTISSLEYEDMGIYYCLQYNEFPYTFGGGTKLEIK
In turn, B8 yielded an OD450 in experiment [2] of 0.09 OD450.

B9: 556F6B8 mouse-human chimeric antibody (antibody, V domains shown)
VH: RVQLKQSGPGLVQPSQSLSITCTVSGFSLIKYGVHWVRQSPGEGLEWLGVIWRGGITDYNAAFMSRLSITKDNSKSQVFFKMNSLQADDTAIYYCAKWDGPLAMDYWGQGTSVTVSS
VL: DIVMTQSHKFLSTSVGDRVSITCKASQDVGTTVAWYQQKPGQSPKLLIYWASTRHTGVPDRFTGSGSGTDFTLTISNVQSEDLADYFCQQYSSYPYTFGGGTKLEIK
notes: also called mAb123-556F6B8; 556F8B8
For B9, the Mean fluorescence intensity in experiment [3] is 4.45; in experiment [4], 93.5.

B10: 556F6B8 (LAG-3 mouse-human chimeric antibody) (antibody, V domains shown)
VH: RVQLKQSGPGLVQPSQSLSITCTVSGFSLIKYGVHWVRQSPGEGLEWLGVIWRGGITDYNAAFMSRLSITKDNSKSQVFFKMNSLQADDTAIYYCAKWDGPLAMDYWGQGTSVTVSS
VL: DIVMTQSHKFLSTSVGDRVSITCKASQDVGTTVAWYQQKPGQSPKLLIYWASTRHTGVPDRFTGSGSGTDFTLTISNVQSEDLADYFCQQYSSYPYTFGGGTKLEIK
notes: also called 556F8B8
On to B10, for which the OD450 in experiment [2] turned out to be 0.09 OD450.

B11: 556F6B8 (mouse antibody purified from hybridoma) (antibody, V domains shown)
VH: RVQLKQSGPGLVQPSQSLSITCTVSGFSLIKYGVHWVRQSPGEGLEWLGVIWRGGITDYNAAFMSRLSITKDNSKSQVFFKMNSLQADDTAIYYCAKWDGPLAMDYWGQGTSVTVSS
VL: DIVMTQSHKFLSTSVGDRVSITCKASQDVGTTVAWYQQKPGQSPKLLIYWASTRHTGVPDRFTGSGSGTDFTLTISNVQSEDLADYFCQQYSSYPYTFGGGTKLEIK
notes: also called mAb123-556F6B8
In experiment [1], B11 came in with a Mean fluorescence intensity of 24.2 MFI.
